PMC3042367 (Biochemistry, 2010)

Target: R831b MerB (organomercurial lyase), unliganded (Serratia marcescens (plasmid R831b), UniProt P77072 1-212)
Assay: stopped-flow fluorescence kinetics

Sequence of R831b MerB (organomercurial lyase), unliganded (P77072 whole entry): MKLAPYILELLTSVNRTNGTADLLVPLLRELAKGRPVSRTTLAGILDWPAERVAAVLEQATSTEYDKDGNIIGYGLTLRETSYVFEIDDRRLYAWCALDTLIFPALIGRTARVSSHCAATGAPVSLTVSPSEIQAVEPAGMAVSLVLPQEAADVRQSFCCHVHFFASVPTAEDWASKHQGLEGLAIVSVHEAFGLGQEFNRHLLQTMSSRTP

B1: HgNmerA, 1:1 Hg(II) complex of pDU1358 NmerA (domain or fragment, Serratia marcescens (plasmid pDU1358), UniProt P08662 1-69, looked up)
chain: MTHLKITGMTCDSCAAHVKEALEKVPGVQSAIVSYAKGAAQLALDPGTAPDALTAAVAGLGYKAMLADA
modifications: also: 1:1 Hg(II) complex bound to Cys11 and Cys14 (CXXC motif)
Q: With B1 as the binder, how does the Kd read?
A: Its Kd is 660 µM.

Q: What about the koff of the same binder?
A: Its koff is 330 s⁻¹.

Q: What about the kon of the same binder?
A: Its kon is 500000 M⁻¹ s⁻¹.
